Measurements published in article PMC3271077.
Read-outs that look alike come from different tables or passages of the source.

Experiments:
Assay in all cases: SPR; Biacore 3000; HopZ1a proteins, GST or BSA immobilised on CM5 chips by amine coupling; 500 µg/ml (Figure S1A: 250 µg/ml) tubulin injected; 25°C, HBS-EP running buffer (0.01 M HEPES pH 7.4, 0.15 M NaCl, 3 mM EDTA, 0.005% Surfactant P20)
[1] = molecular target: HIS-HopZ1a(K289R) (Pseudomonas syringae pv. syringae A2) (UniProt Q6VE93)
[2] = molecular target: HIS-HopZ1a (Pseudomonas syringae pv. syringae A2) (UniProt Q6VE93)
[3] = molecular target: HIS-HopZ1a (Pseudomonas syringae pv. syringae A2) (UniProt Q6VE93); remark: listed apart in the source
[4] = molecular target: HIS-HopZ1a(C216A) (Pseudomonas syringae pv. syringae A2) (UniProt Q6VE93)
[5] = molecular target: GST-HopZ1a (Pseudomonas syringae pv. syringae A2) (UniProt Q6VE93)

Substance	RU difference [1]	RU difference [2]	RU difference [3]	RU difference (250 µg/ml tubulin) [3]	RU difference (6973 RU HIS-HopZ1a immobilised) [3]	RU difference (13598 RU HIS-HopZ1a immobilised) [3]	RU difference (18289 RU HIS-HopZ1a immobilised) [3]	RU difference [4]	RU difference (250 µg/ml tubulin) [4]	RU difference [5]
bovine brain tubulin heterodimers (from UniProt Q6B856 1-445) (complex)	186 RU	117 RU	1050 RU	630 RU	59 RU	324 RU	615 RU	1150 RU	463 RU	36 RU
soybean tubulin (complex)			1230 RU							305 RU
